The values below come from PMC10936776, “Structural and functional characterization of AfsR, an SARP family transcriptional activator of antibiotic biosynthesis in Streptomyces” (PLOS Biology, 2024).

For one data set, the target named is T1, AfsR, dephosphorylated (Streptomyces coelicolor M145, UniProt P25941 1-993).
T1 sequence: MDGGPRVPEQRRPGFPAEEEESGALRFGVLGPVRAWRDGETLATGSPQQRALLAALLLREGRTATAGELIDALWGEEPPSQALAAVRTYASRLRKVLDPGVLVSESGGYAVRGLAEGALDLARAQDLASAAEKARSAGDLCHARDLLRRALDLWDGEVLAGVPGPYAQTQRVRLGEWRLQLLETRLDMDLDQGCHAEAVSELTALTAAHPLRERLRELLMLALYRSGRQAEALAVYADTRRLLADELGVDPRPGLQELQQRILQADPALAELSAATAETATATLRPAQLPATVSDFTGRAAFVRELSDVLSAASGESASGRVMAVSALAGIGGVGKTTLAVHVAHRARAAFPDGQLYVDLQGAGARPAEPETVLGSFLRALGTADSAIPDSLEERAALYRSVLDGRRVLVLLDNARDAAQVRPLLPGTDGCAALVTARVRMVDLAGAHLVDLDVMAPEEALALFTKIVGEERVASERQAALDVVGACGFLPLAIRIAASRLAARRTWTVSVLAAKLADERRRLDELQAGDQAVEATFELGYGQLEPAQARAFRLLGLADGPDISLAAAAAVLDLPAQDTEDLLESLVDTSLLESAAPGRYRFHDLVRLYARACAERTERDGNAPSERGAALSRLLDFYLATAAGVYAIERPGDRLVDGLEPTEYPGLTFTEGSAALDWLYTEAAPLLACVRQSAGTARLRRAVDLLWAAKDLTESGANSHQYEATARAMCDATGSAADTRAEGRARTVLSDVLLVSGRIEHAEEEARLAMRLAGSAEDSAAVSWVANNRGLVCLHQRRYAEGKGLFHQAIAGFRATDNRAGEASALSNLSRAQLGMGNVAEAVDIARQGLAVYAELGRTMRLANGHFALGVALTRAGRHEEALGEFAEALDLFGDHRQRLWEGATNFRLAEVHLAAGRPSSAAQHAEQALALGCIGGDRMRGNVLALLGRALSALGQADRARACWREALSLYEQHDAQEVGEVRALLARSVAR
Nature of the data set: fluorescence polarization; preincubated with ATP; DNA binding unchanged; FP: 20 mM HEPES pH 7.5, 100 mM NaCl, 5 mM MgCl2, 2 mM DTT, 5% glycerol, 0.1 ug/ml poly(dI-dC), 10 nM DNA, 30 C, 20 min. The note with it: protein: recombinant; tags: pET28a His tag (Ni-NTA); chain copies: 2; label: 5'-FAM; blunt. Background: Polarisation of emitted light reports the rotation of a fluorescent probe.

The next data set deals with T2, AfsR 4E (Streptomyces coelicolor M145, UniProt P25941 1-993, S391E;T337E;T506E;S953E).
T2 sequence: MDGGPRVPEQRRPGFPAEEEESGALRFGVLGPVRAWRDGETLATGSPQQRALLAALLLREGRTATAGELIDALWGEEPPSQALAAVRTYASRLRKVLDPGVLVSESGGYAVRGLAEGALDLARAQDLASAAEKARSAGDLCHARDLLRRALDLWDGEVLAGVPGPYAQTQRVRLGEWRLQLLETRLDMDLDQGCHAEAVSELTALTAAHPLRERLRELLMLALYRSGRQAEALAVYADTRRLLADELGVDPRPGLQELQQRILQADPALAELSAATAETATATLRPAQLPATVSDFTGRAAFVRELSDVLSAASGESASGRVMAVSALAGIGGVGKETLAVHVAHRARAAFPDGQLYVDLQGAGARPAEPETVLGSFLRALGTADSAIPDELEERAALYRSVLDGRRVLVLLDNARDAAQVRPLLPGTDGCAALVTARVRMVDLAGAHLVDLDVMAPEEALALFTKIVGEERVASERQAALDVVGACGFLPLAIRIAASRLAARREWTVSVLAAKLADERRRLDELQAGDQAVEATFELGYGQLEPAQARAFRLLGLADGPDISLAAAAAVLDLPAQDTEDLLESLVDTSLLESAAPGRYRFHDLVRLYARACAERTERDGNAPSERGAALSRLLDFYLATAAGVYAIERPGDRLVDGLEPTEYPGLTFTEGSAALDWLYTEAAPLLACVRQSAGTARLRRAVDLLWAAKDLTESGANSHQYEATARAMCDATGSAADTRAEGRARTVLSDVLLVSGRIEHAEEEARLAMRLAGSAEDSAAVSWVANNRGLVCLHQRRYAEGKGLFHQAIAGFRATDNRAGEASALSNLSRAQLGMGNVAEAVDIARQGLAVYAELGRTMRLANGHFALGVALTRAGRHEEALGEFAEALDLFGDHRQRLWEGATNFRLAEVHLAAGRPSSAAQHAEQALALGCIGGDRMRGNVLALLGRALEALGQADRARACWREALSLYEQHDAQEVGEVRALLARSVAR
Briefly: fluorescence polarization; stronger than dephosphorylated AfsR; FP: 20 mM HEPES pH 7.5, 100 mM NaCl, 5 mM MgCl2, 2 mM DTT, 5% glycerol, 0.1 ug/ml poly(dI-dC), 10 nM DNA, 30 C, 20 min. The note with it: protein: recombinant; tags: pET28a His tag (Ni-NTA); chain copies: 2; label: 5'-FAM; blunt.

The target in a further data set is T3, AfsR SARP domain (Streptomyces coelicolor M145, UniProt P25941 1-270).
T3 sequence: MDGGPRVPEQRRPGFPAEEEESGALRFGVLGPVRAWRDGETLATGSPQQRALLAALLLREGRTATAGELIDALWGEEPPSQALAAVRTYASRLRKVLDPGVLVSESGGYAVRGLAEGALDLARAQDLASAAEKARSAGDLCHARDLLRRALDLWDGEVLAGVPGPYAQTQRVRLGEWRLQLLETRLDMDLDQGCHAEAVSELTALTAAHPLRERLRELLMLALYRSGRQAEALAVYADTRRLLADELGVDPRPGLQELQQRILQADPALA
Nature of the data set: fluorescence polarization; 5 mM Mg2+; poly(dI-dC); FP: 20 mM HEPES pH 7.5, 100 mM NaCl, 5 mM MgCl2, 2 mM DTT, 5% glycerol, 0.1 ug/ml poly(dI-dC), 10 nM DNA, 30 C, 20 min. Conditions: protein: recombinant; tags: pET28a His tag (Ni-NTA); chain copies: 2; label: 5'-FAM; blunt.

Data set [1] deals with AfsR SARP domain;RNAP-sigmaHrdB holoenzyme;RbpA;CarD (Streptomyces coelicolor …, UniProt P25941;P60312;Q9L0L0;Q8CJT1;P18183;Q9KXS1;Q9RKY0;Q9L0Q9 …, |||). Nature of the data set: cryo-EM; 3.35 A; open complex, 13-nt bubble; FP: 20 mM HEPES pH 7.5, 100 mM NaCl, 5 mM MgCl2, 2 mM DTT, 5% glycerol, 0.1 ug/ml poly(dI-dC), 10 nM DNA, 30 C, 20 min. The note with it: protein: recombinant;;recombinant;recombinant; tags: pET28a His tag (Ni-NTA);;pET28a His tag (Ni-NTA);pET28a His tag (Ni-NTA); chain copies: 2;2;1;1;1;1;1;1; 44 bp duplex, 6-nt mismatched bubble (-6 to -1), 15 bp duplex.

The target in data set [2] is T4, Streptomyces coelicolor RNA polymerase α subunit (S. coelicolor, UniProt P60312 1-340).
T4 construct: RNA polymerase subunit alpha, S. coelicolor; Stood in the assay as a subunit of the RNAP core in the holoenzyme; density for one αCTD is seen; also called αCTD (C-terminal domain of the α subunit); source: S. coelicolor RNAP purified as described previously [37]
T4 sequence: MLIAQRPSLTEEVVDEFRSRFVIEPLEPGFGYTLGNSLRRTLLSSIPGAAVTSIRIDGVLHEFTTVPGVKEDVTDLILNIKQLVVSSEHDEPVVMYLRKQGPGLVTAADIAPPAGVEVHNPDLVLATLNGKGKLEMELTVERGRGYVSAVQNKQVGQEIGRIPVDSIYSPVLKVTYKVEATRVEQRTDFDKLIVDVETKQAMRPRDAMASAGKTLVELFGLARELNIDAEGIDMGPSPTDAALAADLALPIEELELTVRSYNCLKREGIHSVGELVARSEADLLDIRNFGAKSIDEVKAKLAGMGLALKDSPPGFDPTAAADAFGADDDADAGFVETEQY
Briefly: cryo-EM structure; SARP-TIC: 32 uM SARP preincubated with 5 uM afsS promoter DNA scaffold, mixed with 4 uM RNAP core, 16 uM σ^HrdB, 16 uM CarD, 32 uM RbpA; 25°C; 20 mM Tris-HCl pH 8.0, 50 mM KCl, 5 mM MgCl2, 3 mM DTT; Superose 6; nominal resolution 3.35 Å, SARP region 3.77 Å. The note with it: both partners purified.

Data set [3] deals with T5, Streptomyces coelicolor RNA polymerase sigma factor σ^HrdB (S. coelicolor, UniProt P18183 1-511).
T5 construct: principal sigma factor HrdB, S. coelicolor; region 1.1 disordered in the map; Stood in the assay as part of the RNAP σ^HrdB-holoenzyme; also called σ subunit; σ R4 (region 4); source: purified as described previously [37]
T5 sequence: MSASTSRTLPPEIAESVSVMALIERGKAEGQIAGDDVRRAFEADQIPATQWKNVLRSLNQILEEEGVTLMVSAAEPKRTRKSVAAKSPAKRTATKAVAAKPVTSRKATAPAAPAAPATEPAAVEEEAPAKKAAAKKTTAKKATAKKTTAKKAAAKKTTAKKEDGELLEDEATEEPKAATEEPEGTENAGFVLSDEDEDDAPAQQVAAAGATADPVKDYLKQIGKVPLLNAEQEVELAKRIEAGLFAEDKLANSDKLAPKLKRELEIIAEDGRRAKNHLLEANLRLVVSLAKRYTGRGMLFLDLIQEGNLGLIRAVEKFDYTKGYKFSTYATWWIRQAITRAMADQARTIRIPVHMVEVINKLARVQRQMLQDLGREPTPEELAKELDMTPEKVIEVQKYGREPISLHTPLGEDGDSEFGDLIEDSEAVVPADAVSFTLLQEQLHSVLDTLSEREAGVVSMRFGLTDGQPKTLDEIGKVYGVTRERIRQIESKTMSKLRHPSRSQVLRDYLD
Described as above. The note with it: both partners purified.

The target in data set [4] is T6, Streptomyces coelicolor RNA polymerase β subunit (S. coelicolor, UniProt Q9L0L0 1-1161).
T6 construct: RNA polymerase subunit beta, S. coelicolor; Stood in the assay as a subunit of the RNAP core in the holoenzyme; also called RNAP β; β flap; source: S. coelicolor RNAP purified as described previously [37]
The data set is described as above. Conditions: both partners purified.

The target of data set [5] is T7, Streptomyces coelicolor RNA polymerase β′ subunit (S. coelicolor, UniProt Q8CJT1 1-1299).
T7 construct: RNA polymerase subunit beta', S. coelicolor; Stood in the assay as a subunit of the RNAP core in the holoenzyme; also called RNAP β′; β′ ZBD; source: S. coelicolor RNAP purified as described previously [37]
The data set is described as above. Conditions: both partners purified.

The target in data set [6] is SARP domain of Streptomyces coelicolor AfsR (residues 1 to 270) (S. coelicolor) (UniProt P25941). The description is as above.

The stoichiometry N is a count of units in the complex or per binding partner.

B1: afs box (-45 to -14) (dsDNA)
DNA 1: CGGAGCGTTCAGCGTTCGTTTATCTCCCCCTG
DNA 2: CAGGGGGAGATAAACGAACGCTGAACGCTCCG
As to B1, the binding result with AfsR, dephosphorylated was “binds”; with AfsR 4E, “binds”; with AfsR SARP domain, “binds”.

B2: afsS promoter scaffold -50 to +15, 6-nt bubble (dsDNA)
DNA 1: GTAGCCGGAGCGTTCAGCGTTCGTTTATCTCCCCCTGGCACTGTCATCTCCGTCAGACCGTCGCA
DNA 2: TGCGACGGTCTGACGCTCTACACAGTGCCAGGGGGAGATAAACGAACGCTGAACGCTCCGGCTAC
Regarding B2, the binding result in data set [1] was “binds”.

B3: SARP domain of Streptomyces coelicolor AfsR (residues 1 to 270) (domain or fragment, S. coelicolor, UniProt P25941 1-270, looked up)
chain: MDGGPRVPEQRRPGFPAEEEESGALRFGVLGPVRAWRDGETLATGSPQQRALLAALLLREGRTATAGELIDALWGEEPPSQALAAVRTYASRLRKVLDPGVLVSESGGYAVRGLAEGALDLARAQDLASAAEKARSAGDLCHARDLLRRALDLWDGEVLAGVPGPYAQTQRVRLGEWRLQLLETRLDMDLDQGCHAEAVSELTALTAAHPLRERLRELLMLALYRSGRQAEALAVYADTRRLLADELGVDPRPGLQELQQRILQADPALA
notes: AfsR, S. coelicolor M145, SARP domain, residues 1 to 270 (Met1-Ala270); Two protomers (upstream and downstream) stand on the afs box DNA in SARP-TIC; also called isolated SARP domain; wild-type SARP; source: E. coli BL21(DE3), purified (nickel-NTA, SEC Superdex 200)
For B3, the binding result in data set [2], in data set [3], in data set [4] and in [5] was “binds” throughout. The stoichiometry N in data set [6] came to 2.
